Results taken from article PMC9074039, “Molecular analysis and essentiality of Aro1 shikimate biosynthesis multi-enzyme in Candida albicans” (Life Science Alliance, 2022).

Experiments:
[1] = molecular target: the molecule itself; assay: SEC; Superdex 200, 150 mM NaCl, 10 mM Hepes pH 7.5; tag-free Aro1 purified from C. albicans
[2] = molecular target: the molecule itself; assay: crystal structure; Aro1_(DHQS) with 2 mM NADH and 0.5 mM ZnCl2, sitting drop, room temperature; two copies in the asymmetric unit
[3] = molecular target: the molecule itself; assay: crystal structure; Aro1_(SK-DHQase-DHSD), sitting drop, room temperature; four copies in the asymmetric unit

B1: full-length C. albicans Aro1 (enzyme, UniProt Q5AME2 1-1551, looked up)
chain: MSIEKVPILGKETIHVGYGIADHIVREVIANLASSTYVIVTDTNMARTPQYSKLTDDFKTNLSEKRPESRLLTYCVSPGENNKNRATKAAVEDFLLQQGCTRDTVILAVGGGVIGDMIGFVAATFMRGVRVVQVPTTLLAMVDSSVGGKTAIDTPLGKNFIGAFHQPEYVFCDVSFLETLPARQFINGMAEVVKTAAIWNEEEFTRLENFSKKFLSVVTSKKPDLQSIKAELVKTVLESVRVKAGVVSSDEKEAGLRNLLNFGHTIGHAIEAVLTPEALHGECVSIGMIKEAELSRYLGILPPVAVARLSKCLVAYGLPVSIDDKEFLKKVGPKRHYVEIDILLKKMAIDKKNDGSKIRCVLLEKIGKCYQLKAHQVSKQDLSFVLTDEVLVHPFTNPPKENIIVPPGSKSISNRALILAALGNGTVRVKNLLHSDDTKHMLDAVASLKGAEISTEDNGETIVVKGNGGNLVTSGEELYLGNAGTASRFLTTVASLVGKSQASDDVILTGNARMQERPIGPLVDALGSNGSEIEYLNKQGSLPLKISAGNGLKGGRIELAATISSQYVSSILMCAPYAKEPVTLALVGGKPISQLYIDMTCAMMKSFGIEVTKSTTEEYTYHIPKGTYKNPSEYVIESDASSATYPLAFAAMTGTSCTIPNIGSSSLQGDAKFAVDVLKPMGCKVEQTTTSTTVTGPPRGHLKPLPHVDMEPMTDAFLTASVVAAVAKGGSSTSITGIANQRVKECNRIEAMVTELAKFGVPANELPDGIEIHGIDIEDLKTPEISKRGVSSYDDHRVAMSFSLLAGLCKEPVLILERSTTGKTWPGWWDILHSKFKIELDGYEPPFNTDKHVDKSSDKSIIVIGMRGTGKSTLSEWLASFLGFKMLDMDKYLEEKLGTGIKSLIKAKGWEYFRQEEAIVAKECFTKFSKGYVLSTGGGIVEGEDARQQLKSYADNGGIVLHLHRDLDETVTFLAADTTRPAYSSEVQEVWLRREKWYHECSNYHFYSSHCSTEDEFNHLRRSFVNYIKLITGAERPVVPAGRSAAVVLTSPDLNEVVGDLESITIGADAVELRVDLFKDTSAEFVAAQIAVIRKHADLPIIYTVRTVSQGGKFPDENVDELKSLLLLGIRLGVAYVDLQLTAPNELIEEISSKKGFTRVIGTYQDINGELKWNNVEWKNKYNQGVSMNADIVRLVGKANSIQDNLDLENFKKQNTLKPLIAFNLGSQGKLSQVLNGTFTPISHKLLPNDEEFLTIGELNQTYFDIGGFTAKKFWVIGSPIEHSRSPNLHNAGYKALNLPYQFGRFEATDVDVVYDNLINKPDFGGLAITMPLKLDIMKFATKLSDAAETIGAVNTLIPIEGGYFGDNTDWVGISNSFIRAGVPPKSSSNGLVVGAGGTSRAAIYALHQMGCAKIYLVNRTAAKLEELVKSFPKDYNLEIVETEQQADKASKVSLAVSCIPADKPLDGEVLKKIERILSNGSEQSAGFKPTLLEASYKPRVTPIMKLTEEQYKWKVIPGVEMLVNQGDRQFKLHTGFTAPYEIIHRAVVEE
notes: Aro1 pentafunctional shikimate pathway multi-enzyme (DHQS, EPSPS, SK, DHQase, DHSD domains), Candida albicans, full length, residues 1-1551; Expressed from the tagged genomic ARO1 alleles under the tetO promoter in C. albicans; the His6TEV tag was removed with TEV protease before SEC and cryo-EM; also called His6TEVAro1; wild-type Aro1; source: C. albicans CaLC6830 …
stoichiometry N [1]: 2

B2: Aro1_(DHQS), C. albicans Aro1 residues 1-387 (DHQS domain) (domain or fragment, UniProt Q5AME2 1-387, looked up)
chain: MSIEKVPILGKETIHVGYGIADHIVREVIANLASSTYVIVTDTNMARTPQYSKLTDDFKTNLSEKRPESRLLTYCVSPGENNKNRATKAAVEDFLLQQGCTRDTVILAVGGGVIGDMIGFVAATFMRGVRVVQVPTTLLAMVDSSVGGKTAIDTPLGKNFIGAFHQPEYVFCDVSFLETLPARQFINGMAEVVKTAAIWNEEEFTRLENFSKKFLSVVTSKKPDLQSIKAELVKTVLESVRVKAGVVSSDEKEAGLRNLLNFGHTIGHAIEAVLTPEALHGECVSIGMIKEAELSRYLGILPPVAVARLSKCLVAYGLPVSIDDKEFLKKVGPKRHYVEIDILLKKMAIDKKNDGSKIRCVLLEKIGKCYQLKAHQVSKQDLSFVLT
notes: Aro1, Candida albicans, residues 1-387, 3-dehydroquinate synthase (DHQS) domain; Crystallised with NADH and ZnCl2; source: E. coli BL21(DE3) Gold, purified (Ni-NTA, TEV cleavage, second Ni-NTA); not shown: His6, N-terminal, cleaved
binding result [2]: binds

B3: Aro1_(SK-DHQase-DHSD), C. albicans Aro1 residues 845-1,551 (SK, DHQase and DHSD domains) (domain or fragment, UniProt Q5AME2 845-1551, looked up)
chain: PPFNTDKHVDKSSDKSIIVIGMRGTGKSTLSEWLASFLGFKMLDMDKYLEEKLGTGIKSLIKAKGWEYFRQEEAIVAKECFTKFSKGYVLSTGGGIVEGEDARQQLKSYADNGGIVLHLHRDLDETVTFLAADTTRPAYSSEVQEVWLRREKWYHECSNYHFYSSHCSTEDEFNHLRRSFVNYIKLITGAERPVVPAGRSAAVVLTSPDLNEVVGDLESITIGADAVELRVDLFKDTSAEFVAAQIAVIRKHADLPIIYTVRTVSQGGKFPDENVDELKSLLLLGIRLGVAYVDLQLTAPNELIEEISSKKGFTRVIGTYQDINGELKWNNVEWKNKYNQGVSMNADIVRLVGKANSIQDNLDLENFKKQNTLKPLIAFNLGSQGKLSQVLNGTFTPISHKLLPNDEEFLTIGELNQTYFDIGGFTAKKFWVIGSPIEHSRSPNLHNAGYKALNLPYQFGRFEATDVDVVYDNLINKPDFGGLAITMPLKLDIMKFATKLSDAAETIGAVNTLIPIEGGYFGDNTDWVGISNSFIRAGVPPKSSSNGLVVGAGGTSRAAIYALHQMGCAKIYLVNRTAAKLEELVKSFPKDYNLEIVETEQQADKASKVSLAVSCIPADKPLDGEVLKKIERILSNGSEQSAGFKPTLLEASYKPRVTPIMKLTEEQYKWKVIPGVEMLVNQGDRQFKLHTGFTAPYEIIHRAVVEE
notes: Aro1, Candida albicans, residues 845-1551: SK domain (857-1032), linker (1033-1038), DHQase domain (1039-1267), DHSD domain (1268-1551); Four copies in the asymmetric unit; also called Aro1_(SK-DHQ-DHSD); source: E. coli BL21(DE3) Gold, purified (Ni-NTA, TEV cleavage, second Ni-NTA); not shown: His6, N-terminal, cleaved
binding result [3]: binds
